The record followed here is patent publication US20250161356A1.

Assay [1] deals with BTN2A1-BTN3A1-zipper ectodomain complex (wild type) (human) (UniProt Q7KYR7). Briefly: flow cytometry, complex tetramer MFI on transfected BTN2A.BTN3A KO HEK293T cells; mean ± SEM; control. (In general: In flow cytometry, cells or beads pass a laser one at a time.)
Assay [2] addresses BTN2A1-BTN3A1 complex peptide on (human). Briefly: PE-labelled BTN2A1-BTN3A1 complex tetramer on BTN2A.BTN3A-knockout HEK293T cells transfected with the TCR and CD3; reduced against WT G115; full-length, on cells.
Assay [3] concerns the target full-length human BTN3A1 on transfected cells (human) (UniProt O00481). The assay is described as follows: flow cytometry, γδTCR tetramer-PE on BTN3A1+ NIH-3T3 cells, isotype (IgG1κ)-treated (black number), GFP+ gate; SAv ctl 28.
Assay [4] has the same target. Briefly: flow cytometry, control tetramer-PE on BTN3A1+ NIH-3T3 cells, isotype (IgG1κ)-treated (black number), GFP+ gate; SAv ctl 25.
In assay [5] the target is BTN2A1 on transfected cells (human) (UniProt Q7KYR7). The assay is described as follows: flow cytometry, control tetramer-PE on BTN2A1+ NIH-3T3 cells, mAb 20.1-treated (grey number), GFP+ gate; SAv ctl 22.
Chain of BTN2A1 on transfected cells (human) (Q7KYR7 29-527 limits assumed): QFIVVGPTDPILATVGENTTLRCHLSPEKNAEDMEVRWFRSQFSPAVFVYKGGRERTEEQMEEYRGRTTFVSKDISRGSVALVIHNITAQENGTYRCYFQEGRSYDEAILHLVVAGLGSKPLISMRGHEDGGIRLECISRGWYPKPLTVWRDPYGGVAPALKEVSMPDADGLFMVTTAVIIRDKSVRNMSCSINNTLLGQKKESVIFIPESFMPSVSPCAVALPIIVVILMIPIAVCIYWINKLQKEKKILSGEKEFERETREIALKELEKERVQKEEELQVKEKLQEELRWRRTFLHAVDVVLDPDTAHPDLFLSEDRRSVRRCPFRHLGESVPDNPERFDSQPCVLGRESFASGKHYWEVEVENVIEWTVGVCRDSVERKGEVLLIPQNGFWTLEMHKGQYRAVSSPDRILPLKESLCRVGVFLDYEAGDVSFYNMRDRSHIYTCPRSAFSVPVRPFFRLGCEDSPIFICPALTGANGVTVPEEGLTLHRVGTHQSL
Assay [6] has as its target G115 Vγ9Vδ2+ TCR Glu52δ-Ala on transfected HEK293T cells (human). The assay is described as follows: flow cytometry, tetramer-PE versus CD3-APC on HEK293T cells co-transfected with CD3 and G115 Glu52δ-Ala TCR; SAv ctl 32.
Assay [7] addresses G115 Vγ9Vδ2+ TCR wild-type, full-length, on transfected HEK293T cells (human). Briefly: flow cytometry, tetramer-PE versus CD3-APC on HEK293T cells co-transfected with CD3 and G115 WT TCR; SAv ctl 27.
Assay [8] addresses G115 Vγ9Vδ2+ TCR Lys53δ-Ala on transfected HEK293T cells (human). The assay is described as follows: flow cytometry, tetramer-PE versus CD3-APC on HEK293T cells co-transfected with CD3 and G115 Lys53δ-Ala TCR; SAv ctl 27.
Assay [9] has as its target G115 Vγ9Vδ2+ TCR His85γ-Ala on transfected HEK293T cells (human). The assay is described as follows: flow cytometry, tetramer-PE versus CD3-APC on HEK293T cells co-transfected with CD3 and G115 His85γ-Ala TCR; SAv ctl 27.

Chain of G115 Vγ9Vδ2+ TCR His85γ-Ala on transfected HEK293T cells (human) (TCR delta, as listed by the source, chain 1 of 2): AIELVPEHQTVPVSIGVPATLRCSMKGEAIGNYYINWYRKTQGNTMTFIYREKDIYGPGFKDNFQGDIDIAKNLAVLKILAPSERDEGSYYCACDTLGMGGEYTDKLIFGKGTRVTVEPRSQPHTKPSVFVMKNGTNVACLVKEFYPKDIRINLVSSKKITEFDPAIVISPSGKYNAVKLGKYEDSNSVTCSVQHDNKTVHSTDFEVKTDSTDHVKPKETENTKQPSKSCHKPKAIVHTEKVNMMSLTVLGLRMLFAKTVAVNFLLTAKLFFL
Chain of G115 Vγ9Vδ2+ TCR His85γ-Ala on transfected HEK293T cells (human) (TCR gamma, as listed by the source, chain 2 of 2): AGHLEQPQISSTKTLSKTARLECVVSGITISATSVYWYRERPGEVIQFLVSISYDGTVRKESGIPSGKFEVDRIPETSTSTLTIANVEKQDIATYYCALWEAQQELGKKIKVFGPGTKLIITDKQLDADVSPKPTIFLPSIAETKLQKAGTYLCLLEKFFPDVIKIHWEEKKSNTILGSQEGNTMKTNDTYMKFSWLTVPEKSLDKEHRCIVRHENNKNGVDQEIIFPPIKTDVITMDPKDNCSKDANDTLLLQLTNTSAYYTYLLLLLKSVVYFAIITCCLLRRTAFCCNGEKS

Regarding “CD3 complex on HEK293T cells transfected with CD3 only (receptor)”, in assay [1], the fold-change of BTN2A1-BTN3A1 complex tetramer MFI relative to WT G115 TCR was 0.3 fold.

Take G115 Vγ9Vδ2+ TCR K53D: the fold change of tetramer MFI against WT G115 TCR in assay [2] came out at 0.8 fold.

Turning to G115 Vγ9Vδ2+ TCR K53E, the fold change of tetramer MFI against WT G115 TCR in assay [2] turned out to be 0.7 fold.

In turn, “chimeric γδTCR tetramer: G115 Vγ9+ γ-chain with 9C2 Vδ1+ δ-chain” came in with an MFI of PE in assay [3] of 24.

mCD1d tet. ctl: the figures for the MFI of PE in [4] and in assay [5] were 32 and 20, respectively. Moreover, the median fluorescence of PE in assay [6] stood at 28; in assay [7], 20; in [8], 23; in assay [9] it was 22.
